According to patent publication US20190241648A1 (STATEN BIOTECHNOLOGY B V, published 2019):
Ends that are not written are not given here.

How the values were obtained:
Test in all cases: peptide microarray
ApoC3 peptide … K60L = target: T1, ApoC3 peptide … K60L (human, not fully specified (bridges); also: cyclic constrained)
T1 peptide: DLFSEFWDLDPEV
How it was run: (§1)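 ApoC3 peptide microarrays incubated with antibody samples and then stained with goat anti-human IgG (Fc) DyLight680 plus anti-HA DyLight800 control antibody. Scanned at intensity 7/7 (red/green); a secondary-only prestain checked for background, and framing HA peptides served as quality control.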

ApoC3 peptide … D66S = target: T2, ApoC3 peptide … D66S (human, not fully specified (bridges); also: cyclic constrained)
T2 peptide: DKFSEFWSLDPEV
How it was run: as §1

ApoC3 peptide … F61R = target: T3, ApoC3 peptide … F61R (human, not fully specified (bridges); also: cyclic constrained)
T3 peptide: DKRSEFWDLDPEV
How it was run: as §1

ApoC3 peptide … D68G = target: T4, ApoC3 peptide … D68G (human, cyclic constrained)
T4 peptide: DKFSEFWDLGPEV
How it was run: as §1

ApoC3 peptide … L67S = target: T5, ApoC3 peptide … L67S (human, not fully specified (bridges); also: cyclic constrained)
T5 peptide: DKFSEFWDSDPEV
How it was run: as §1

ApoC3 peptide … F64I = target: T6, ApoC3 peptide … F64I (human, not fully specified (bridges); also: cyclic constrained)
T6 peptide: DKFSEIWDLDPEV
How it was run: as §1

ApoC3 peptide … P69G = target: T7, ApoC3 peptide … P69G (human, not fully specified (bridges); also: cyclic constrained)
T7 peptide: DKFSEFWDLDGEV
How it was run: as §1

ApoC3 peptide … S62Q = ApoC3 peptide … S62Q (human, cyclic constrained)
How it was run: as §1

ApoC3 peptide … D66G = target: T8, ApoC3 peptide … D66G (human, not fully specified (bridges); also: cyclic constrained)
T8 peptide: DKFSEFWGLDPEV
How it was run: as §1

ApoC3 peptide … V71L = ApoC3 peptide … V71L (human, cyclic constrained)
How it was run: as §1

ApoC3 peptide … F61G = target: T9, ApoC3 peptide … F61G (human, cyclic constrained)
T9 peptide: DKGSEFWDLDPEV
How it was run: as §1

ApoC3 peptide … L67G = target: T10, ApoC3 peptide … L67G (human, not fully specified (bridges); also: cyclic constrained)
T10 peptide: DKFSEFWDGDPEV
How it was run: as §1

ApoC3 peptide … S62V = ApoC3 peptide … S62V (human, cyclic constrained)
How it was run: as §1

ApoC3 peptide … F64L = target: T11, ApoC3 peptide … F64L (human, not fully specified (bridges); also: cyclic constrained)
T11 peptide: DKFSELWDLDPEV
How it was run: as §1

ApoC3 peptide … V71N = ApoC3 peptide … V71N (human, cyclic constrained)
How it was run: as §1

ApoC3 peptide … L67N = target: T12, ApoC3 peptide … L67N (human, not fully specified (bridges); also: cyclic constrained)
T12 peptide: DKFSEFWDNDPEV
How it was run: as §1

ApoC3 peptide … E70H = target: T13, ApoC3 peptide … E70H (human, not fully specified (bridges); also: cyclic constrained)
T13 peptide: DKFSEFWDLDPHV
How it was run: as §1

ApoC3 peptide … W65I = target: T14, ApoC3 peptide … W65I (human, not fully specified (bridges); also: cyclic constrained, ring type and places not given here)
T14 peptide: DKFSEFIDLDPEV
How it was run: as §1

ApoC3 peptide … E70W = target: T15, ApoC3 peptide … E70W (human, cyclic constrained)
T15 peptide: DKFSEFWDLDPWV
How it was run: as §1

ApoC3 peptide … E70D = ApoC3 peptide … E70D (human, cyclic constrained)
How it was run: as §1

ApoC3 peptide … E70Q = target: T16, ApoC3 peptide … E70Q (human, not fully specified (bridges); also: cyclic constrained)
T16 peptide: DKFSEFWDLDPQV
How it was run: as §1

ApoC3 peptide … D66P = target: T17, ApoC3 peptide … D66P (human, not fully specified (bridges); also: cyclic constrained)
T17 peptide: DKFSEFWPLDPEV
How it was run: as §1

ApoC3 peptide … K60D = target: T18, ApoC3 peptide … K60D (human, not fully specified (bridges); also: cyclic constrained)
T18 peptide: DDFSEFWDLDPEV
How it was run: as §1

ApoC3 peptide … V71D = ApoC3 peptide … V71D (human, cyclic constrained)
How it was run: as §1

ApoC3 peptide … E63K = ApoC3 peptide … E63K (human, cyclic constrained)
How it was run: as §1

ApoC3 peptide … D68P = target: T19, ApoC3 peptide … D68P (human, cyclic constrained)
T19 peptide: DKFSEFWDLPPEV
How it was run: as §1

ApoC3 peptide … P69Y = ApoC3 peptide … P69Y (human, cyclic constrained)
How it was run: as §1

ApoC3 peptide … F61N = target: T20, ApoC3 peptide … F61N (human, not fully specified (bridges); also: cyclic constrained)
T20 peptide: DKNSEFWDLDPEV
How it was run: as §1

ApoC3 peptide … F64Y = target: T21, ApoC3 peptide … F64Y (human, not fully specified (bridges); also: cyclic constrained)
T21 peptide: DKFSEYWDLDPEV
How it was run: as §1

ApoC3 peptide … D66C = target: T22, ApoC3 peptide … D66C (human, not fully specified (bridges); also: cyclic constrained)
T22 peptide: DKFSEFWCLDPEV
How it was run: as §1

ApoC3 peptide … S62A = ApoC3 peptide … S62A (human, cyclic constrained)
How it was run: as §1

ApoC3 peptide … D68I = target: T23, ApoC3 peptide … D68I (human, cyclic constrained)
T23 peptide: DKFSEFWDLIPEV
How it was run: as §1

ApoC3 peptide … E70N = target: T24, ApoC3 peptide … E70N (human, not fully specified (bridges); also: cyclic constrained)
T24 peptide: DKFSEFWDLDPNV
How it was run: as §1

ApoC3 peptide … W65S = target: T25, ApoC3 peptide … W65S (human, not fully specified (bridges); also: cyclic constrained, ring type and places not given here)
T25 peptide: DKFSEFSDLDPEV
How it was run: as §1

ApoC3 peptide … W65E = ApoC3 peptide … W65E (human, cyclic constrained)
How it was run: as §1

ApoC3 peptide … D59V = target: T26, ApoC3 peptide … D59V (human, not fully specified (bridges); also: cyclic constrained)
T26 peptide: VKFSEFWDLDPEV
How it was run: as §1

- % of binding to wild-type peptide (ApoC3 peptide … K60L): 89.2%
- % of binding to wild-type peptide (ApoC3 peptide … D66S): 0%
- % of binding to wild-type peptide (ApoC3 peptide … F61R): 35.6%
- % of binding to wild-type peptide (ApoC3 peptide … D68G): 0%
- % of binding to wild-type peptide (ApoC3 peptide … L67S): 26.5%
- % of binding to wild-type peptide (ApoC3 peptide … F64I): 100%
- % of binding to wild-type peptide (ApoC3 peptide … P69G): 16.3%
- % of binding to wild-type peptide (ApoC3 peptide … S62Q): 111%
- % of binding to wild-type peptide (ApoC3 peptide … D66G): 0%
- % of binding to wild-type peptide (ApoC3 peptide … V71L): 78%
- % of binding to wild-type peptide (ApoC3 peptide … F61G): 25.9%
- % of binding to wild-type peptide (ApoC3 peptide … L67G): 0.6%
- % of binding to wild-type peptide (ApoC3 peptide … S62V): 93.6%
- % of binding to wild-type peptide (ApoC3 peptide … F64L): 89.7%
- % of binding to wild-type peptide (ApoC3 peptide … V71N): 98.7%
- % of binding to wild-type peptide (ApoC3 peptide … L67N): 19.8%
- % of binding to wild-type peptide (ApoC3 peptide … E70H): 0.03%
- % of binding to wild-type peptide (ApoC3 peptide … W65I): 20.3%
- % of binding to wild-type peptide (ApoC3 peptide … E70W): 2.84%
- % of binding to wild-type peptide (ApoC3 peptide … E70D): 13.8%
- % of binding to wild-type peptide (ApoC3 peptide … E70Q): 2.1%
- % of binding to wild-type peptide (ApoC3 peptide … D66P): 0%
- % of binding to wild-type peptide (ApoC3 peptide … K60D): 151%
- % of binding to wild-type peptide (ApoC3 peptide … V71D): 223%
- % of binding to wild-type peptide (ApoC3 peptide … E63K): 7.9%
- % of binding to wild-type peptide (ApoC3 peptide … D68P): 0%
- % of binding to wild-type peptide (ApoC3 peptide … P69Y): 52%
- % of binding to wild-type peptide (ApoC3 peptide … F61N): 48.3%
- % of binding to wild-type peptide (ApoC3 peptide … F64Y): 86.4%
- % of binding to wild-type peptide (ApoC3 peptide … D66C): 7.92%
- % of binding to wild-type peptide (ApoC3 peptide … S62A): 97.3%
- % of binding to wild-type peptide (ApoC3 peptide … D68I): 0%
- % of binding to wild-type peptide (ApoC3 peptide … E70N): 0.15%
- % of binding to wild-type peptide (ApoC3 peptide … W65S): 132%
- % of binding to wild-type peptide (ApoC3 peptide … W65E): 168%
- % of binding to wild-type peptide (ApoC3 peptide … D59V): 65.1%
B1: anti-ApoC3 antibody 6A6 (antibody, V domains shown)
VH: EVQLVESGGGLVQPGGSLRLSCAASGFTFSSYAGRWVRQVPGKGLEWVSSINAGGGSTSYADSVKGRFTISRDNAKNTLYLQMNSLKPEDTAKYYCTQNSYRYWGQGTRVAVSS
VL: DVVLTQTPGSLSVVPGESASISCKASQSLIHTDGKTYLYWLLQKPGQRPQLLIYQVSSHESGVPDRFTGSGSGTDFTLKISGVKAEDAGVYYCAQATYNPRTFGQGTKLEIK
notes: it was detected with goat anti-human IgG (Fc); also called mAb 6A6; llama antibody 6A6
